Assay results reported in the Human Domainome abundance scans (Beltran et al. 2025).
± gives the uncertainty stated by the source.

B1: E3 ubiquitin-protein ligase TRIM36, residues 208 to 252; numbered along this chain, Q9NQ86 (parent)
chain: KILMCPEHETERINMYCELCRRPVCHLCKLGGNHANHRVTTMSSA

Variants of: B1
Assay: abundance fitness (aPCA) (normalised: wild type 0, dead -1); higher = more abundant; growth selection in yeast, the domain comes from the species named
Conditions: Homo sapiens

| Variant | abundance fitness |
| --- | --- |
| KILMCPEHETERINMYCELCRRPVCHQCKLGGNHANHRVTTMSSA | 0.019 ± 0.061 |
| KILMCPEHETERINMYCELCRRPVCHGCKLGGNHANHRVTTMSSA | -0.141 ± 0.043 |
| KILMCPEHETERINMYCELCRRPVCHICKLGGNHANHRVTTMSSA | -0.041 ± 0.064 |
| KILMCPEHETERINMYCELCRRPVCHSCKLGGNHANHRVTTMSSA | -0.003 ± 0.055 |
| KILMCPEHETERINMYCELCRRPVCHTCKLGGNHANHRVTTMSSA | 0.095 ± 0.081 |
| KILMCPEHETERINMYCELCRRPVCHMCKLGGNHANHRVTTMSSA | -0.092 ± 0.089 |
| KILMCPEHETERINMYCELCRRPVCHECKLGGNHANHRVTTMSSA | -0.058 ± 0.05 |
| KILMCPEHETERINMYCELCRRPVCHCCKLGGNHANHRVTTMSSA | -0.196 ± 0.064 |
| KILMCPEHETERINMYCELCRRPVCHWCKLGGNHANHRVTTMSSA | -0.223 ± 0.052 |
| KILMCPEHETERINMYCELCRRPVCHRCKLGGNHANHRVTTMSSA | 0.015 ± 0.044 |
| KILMCPEHETERINMYCELCRRPVCHYCKLGGNHANHRVTTMSSA | -0.222 ± 0.16 |
| KILMCPEHETERINMYCELCRRPVCHNCKLGGNHANHRVTTMSSA | 0.005 ± 0.12 |
| KILMCPEHETERINMYCELCRRPVCHDCKLGGNHANHRVTTMSSA | -0.202 ± 0.084 |
| KILMCPEHETERINMYCELCRRPVCHFCKLGGNHANHRVTTMSSA | -0.182 ± 0.083 |
| KILMCPEHETERINMYCELCRRPVCHACKLGGNHANHRVTTMSSA | 0.052 ± 0.05 |
| KILMCPEHETERINMYCELCRRPVCHPCKLGGNHANHRVTTMSSA | -0.355 ± 0.071 |
| KILMCPEHETERINMYCELCRRPVWHLCKLGGNHANHRVTTMSSA | -1.1 ± 0.091 |
| KILMCPEHETERINMYCELCRRPVLHLCKLGGNHANHRVTTMSSA | -0.81 ± 0.059 |
| KILMCPEHETERINMYCELCRRPVIHLCKLGGNHANHRVTTMSSA | -0.814 ± 0.1 |

| Variant | abundance fitness |
| --- | --- |
| KILMCPEHETERINMYCELCRRPVEHLCKLGGNHANHRVTTMSSA | -0.48 ± 0.072 |
| KILMCPEHETERINMYCELCRRPVGHLCKLGGNHANHRVTTMSSA | -0.556 ± 0.053 |
| KILMCPEHETERINMYCELCRRPVMHLCKLGGNHANHRVTTMSSA | -0.618 ± 0.1 |
| KILMCPEHETERINMYCELCRRPVYHLCKLGGNHANHRVTTMSSA | -0.805 ± 0.075 |
| KILMCPEHETERINMYCELCRRPVQHLCKLGGNHANHRVTTMSSA | -0.532 ± 0.069 |
| KILMCPEHETERINMYCELCRRPVSHLCKLGGNHANHRVTTMSSA | -0.665 ± 0.054 |
| KILMCPEHETERINMYCELCRRPVVHLCKLGGNHANHRVTTMSSA | -0.854 ± 0.059 |
| KILMCPEHETERINMYCELCRRPVKHLCKLGGNHANHRVTTMSSA | -0.572 ± 0.087 |
| KILMCPEHETERINMYCELCRRPVPHLCKLGGNHANHRVTTMSSA | -0.723 ± 0.07 |
| KILMCPEHETERINMYCELCRRPVRHLCKLGGNHANHRVTTMSSA | -0.729 ± 0.054 |
| KILMCPEHETERINMYCELCRRPVTHLCKLGGNHANHRVTTMSSA | -0.612 ± 0.062 |
| KILMCPEHETERINMYCELCRRPVHHLCKLGGNHANHRVTTMSSA | -0.603 ± 0.12 |
| KILMCPEHETERINMYCELCRRPVNHLCKLGGNHANHRVTTMSSA | -0.5 ± 0.21 |
| KILMCPEHETERINMYCELCRRPVFHLCKLGGNHANHRVTTMSSA | -0.752 ± 0.23 |
| KILMCPEHETERINMYCELCRRPVCMLCKLGGNHANHRVTTMSSA | -0.237 ± 0.056 |
| KILMCPEHETERINMYCELCRRPVCPLCKLGGNHANHRVTTMSSA | 0.021 ± 0.091 |
| KILMCPEHETERINMYCELCRRPVCELCKLGGNHANHRVTTMSSA | -0.022 ± 0.064 |
| KILMCPEHETERINMYCELCRRPVCSLCKLGGNHANHRVTTMSSA | 0.004 ± 0.062 |
| KILMCPEHETERINMYCELCRRPVCFLCKLGGNHANHRVTTMSSA | -0.307 ± 0.24 |

| Variant | abundance fitness |
| --- | --- |
| KILMCPEHETERINMYCELCRRPVCLLCKLGGNHANHRVTTMSSA | -0.161 ± 0.055 |
| KILMCPEHETERINMYCELCRRPVCWLCKLGGNHANHRVTTMSSA | -0.324 ± 0.08 |
| KILMCPEHETERINMYCELCRRPVCVLCKLGGNHANHRVTTMSSA | -0.016 ± 0.061 |
| KILMCPEHETERINMYCELCRRPVCCLCKLGGNHANHRVTTMSSA | 0.01 ± 0.065 |
| KILMCPEHETERINMYCELCRRPVCTLCKLGGNHANHRVTTMSSA | -0.226 ± 0.068 |
| KILMCPEHETERINMYCELCRRPVCQLCKLGGNHANHRVTTMSSA | 0.045 ± 0.063 |
| KILMCPEHETERINMYCELCRRPVCDLCKLGGNHANHRVTTMSSA | 0.04 ± 0.085 |
| KILMCPEHETERINMYCELCRRPVCYLCKLGGNHANHRVTTMSSA | 0.343 ± 0.12 |
| KILMCPEHETERINMYCELCRRPVCGLCKLGGNHANHRVTTMSSA | 0.049 ± 0.058 |
| KILMCPEHETERINMYCELCRRPVCRLCKLGGNHANHRVTTMSSA | -0.05 ± 0.055 |
| KILMCPEHETERINMYCELCRRPVCKLCKLGGNHANHRVTTMSSA | -0.384 ± 0.077 |
| KILMCPEHETERINMYCELCRRPVCNLCKLGGNHANHRVTTMSSA | -0.215 ± 0.078 |
| KILMCPEHETERINMYCELCRRPVCHLCKYGGNHANHRVTTMSSA | -0.549 ± 0.14 |
| KILMCPEHETERINMYCELCRRPVCHLCKEGGNHANHRVTTMSSA | 0.09 ± 0.056 |
| KILMCPEHETERINMYCELCRRPVCHLCKQGGNHANHRVTTMSSA | 0.067 ± 0.056 |
| KILMCPEHETERINMYCELCRRPVCHLCKGGGNHANHRVTTMSSA | 0.073 ± 0.051 |
| KILMCPEHETERINMYCELCRRPVCHLCKSGGNHANHRVTTMSSA | 0.075 ± 0.05 |
| KILMCPEHETERINMYCELCRRPVCHLCKMGGNHANHRVTTMSSA | -0.041 ± 0.082 |
| KILMCPEHETERINMYCELCRRPVCHLCKCGGNHANHRVTTMSSA | -0.023 ± 0.063 |
